Test [1] deals with mLRP/LRPTmMegT mini-receptor (fourth ligand binding and transmembrane domains of LRP1 with the C-terminal cytoplasmic tail of megalin) on MDCK cells (UniProt Q07954). As to the kind of experiment: cell-based or functional assay.
Test [2] deals with T1, recombinant human alpha-L-iduronidase (Aldurazyme) (human, UniProt P35475 27-653, limits assumed).
T1 construct: also called rhIDU; Recombinant human IDU
T1 sequence (looked up): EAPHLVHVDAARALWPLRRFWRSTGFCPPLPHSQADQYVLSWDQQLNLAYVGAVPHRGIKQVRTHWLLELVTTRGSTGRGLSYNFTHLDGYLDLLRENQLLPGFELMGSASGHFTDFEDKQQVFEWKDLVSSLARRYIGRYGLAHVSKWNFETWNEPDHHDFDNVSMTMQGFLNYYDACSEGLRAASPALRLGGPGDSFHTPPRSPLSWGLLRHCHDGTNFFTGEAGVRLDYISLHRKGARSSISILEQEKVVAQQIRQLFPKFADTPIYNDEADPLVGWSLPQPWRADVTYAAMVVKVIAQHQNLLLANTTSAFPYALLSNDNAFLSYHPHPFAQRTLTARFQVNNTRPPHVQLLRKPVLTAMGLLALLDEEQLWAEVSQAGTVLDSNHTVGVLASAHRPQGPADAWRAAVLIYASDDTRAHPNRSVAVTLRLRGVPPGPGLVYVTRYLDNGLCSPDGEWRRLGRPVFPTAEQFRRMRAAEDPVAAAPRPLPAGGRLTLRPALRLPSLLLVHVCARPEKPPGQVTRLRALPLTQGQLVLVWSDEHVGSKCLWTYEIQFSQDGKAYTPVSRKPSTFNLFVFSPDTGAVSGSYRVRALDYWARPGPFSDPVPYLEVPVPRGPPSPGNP
In words: ligand blot, sLRP2 (1 µg/well) on membrane, antibody detection.

mLRP/LRPTmMegT mini-receptor (fourth ligand binding and transmembrane domains of LRP1 with the C-terminal cytoplasmic tail of megalin) on MDCK cells, sequence (Q07954 3293-4444): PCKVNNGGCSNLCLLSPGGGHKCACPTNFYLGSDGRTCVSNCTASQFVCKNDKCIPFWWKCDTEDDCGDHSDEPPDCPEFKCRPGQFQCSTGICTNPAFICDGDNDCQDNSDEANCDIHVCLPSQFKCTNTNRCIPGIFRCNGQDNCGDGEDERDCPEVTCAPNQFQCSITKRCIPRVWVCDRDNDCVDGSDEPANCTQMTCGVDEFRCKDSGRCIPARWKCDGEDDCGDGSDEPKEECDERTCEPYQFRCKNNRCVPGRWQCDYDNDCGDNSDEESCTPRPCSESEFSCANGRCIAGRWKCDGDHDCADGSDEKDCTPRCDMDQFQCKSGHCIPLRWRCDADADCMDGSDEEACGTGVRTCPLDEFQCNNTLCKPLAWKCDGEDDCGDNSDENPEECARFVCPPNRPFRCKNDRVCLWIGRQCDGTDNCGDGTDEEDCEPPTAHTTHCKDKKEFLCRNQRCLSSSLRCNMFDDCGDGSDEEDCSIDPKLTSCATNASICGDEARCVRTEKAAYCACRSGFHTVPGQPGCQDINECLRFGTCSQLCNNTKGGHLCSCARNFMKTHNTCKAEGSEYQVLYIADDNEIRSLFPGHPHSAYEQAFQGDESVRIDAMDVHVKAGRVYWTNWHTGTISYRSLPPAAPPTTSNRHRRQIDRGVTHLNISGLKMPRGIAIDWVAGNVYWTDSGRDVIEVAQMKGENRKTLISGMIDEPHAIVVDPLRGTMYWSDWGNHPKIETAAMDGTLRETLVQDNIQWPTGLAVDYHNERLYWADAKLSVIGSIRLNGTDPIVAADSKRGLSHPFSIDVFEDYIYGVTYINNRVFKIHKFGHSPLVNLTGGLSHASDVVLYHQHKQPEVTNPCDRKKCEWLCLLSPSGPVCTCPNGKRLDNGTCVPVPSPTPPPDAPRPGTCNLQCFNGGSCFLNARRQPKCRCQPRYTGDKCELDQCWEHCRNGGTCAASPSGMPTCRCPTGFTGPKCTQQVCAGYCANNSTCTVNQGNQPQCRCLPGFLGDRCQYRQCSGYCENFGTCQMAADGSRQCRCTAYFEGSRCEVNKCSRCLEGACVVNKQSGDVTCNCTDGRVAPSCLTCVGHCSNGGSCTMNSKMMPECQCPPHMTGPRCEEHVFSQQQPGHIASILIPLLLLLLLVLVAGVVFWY

Turning to “receptor-associated protein (RAP) (ligand)”, in test [1], the apical-to-basolateral permeability coefficient of 125I-RAP across MEGt-transfected MDCK monolayers with excess unlabeled RAP at 2 µg/ml worked out at 6.3e-06 cm/s; the apical-to-basolateral permeability coefficient of 125I-RAP across MEGt-transfected MDCK monolayers, 60 min worked out at 1.81e-05 cm/s; the ratio of apical-to-basolateral to basolateral-to-apical permeability coefficient of 125I-RAP in MEGt-transfected MDCK cells turned out to be 460 fold.

B1: sLRP2, the entire second ligand-binding domain of human LRP1 (recombinant) (receptor, UniProt Q07954 806-1183, looked up)
chain: KCRVNNGGCSSLCLATPGSRQCACAEDQVLDADGVTCLANPSYVPPPQCQPGEFACANSRCIQERWKCDGDNDCLDNSDEAPALCHQHTCPSDRFKCENNRCIPNRWLCDGDNDCGNSEDESNATCSARTCPPNQFSCASGRCIPISWTCDLDDDCGDRSDESASCAYPTCFPLTQFTCNNGRCININWRCDNDNDCGDNSDEAGCSHSCSSTQFKCNSGRCIPEHWTCDGDNDCGDYSDETHANCTNQATRPPGGCHTDEFQCRLDGLCIPLRWRCDGDTDCMDSSDEKSCEGVTHVCDPSVKFGCKDSARCISKAWVCDGDNDCEDNSDEENCESLACRPPSHPCANNTSVCLPPDKLCDGNDDCGDGSDEGELCD
notes: also called immobilized LRP
On to B1, for which the binding result in test [2] is on record as “no binding”.

For the origin of these results see patent EP1638605B1 (Raptor Pharmaceutical, Inc., dated 2014).
